Data on 102 substances can be found in the supplement of paper PMC12042874.

The series in a line: amyloid nucleation score (Sup35N fusion, yeast selection) (log enrichment); library NNK1; higher = more nucleation; inactive = no reads after selection. Summed up: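 The nucleation score equals the log enrichment of output over input reads from DiMSum, centred on the mode score of non-aggregating sequences. It was computed only for sequences with 100 or more input reads. The reads came from Illumina sequencing of plasmid inserts from psi-negative yeast expressing Sup35N fused to peptides of 20 random codons, induced with 100 μM copper sulfate for 24 hours and grown 7 days at 30°C without adenine and uracil.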

± gives the uncertainty stated by the source.

Regarding DRYVYEFSYVLFWLFILVM, the amyloid nucleation score was found to be 0.128 ± 0.44.
As for YSLWFLRYSRNGSMRDLLRF, the figure is -0.447 ± 0.39; as for LVTCLLHAG, -1.38 ± 0.58; as for ADLLVVGVPSFNFWSSKVFV, “inactive”.
As for KRVLCSTCIHRLCPKSGGDC, the figure is 1.33 ± 0.68; as for DLHLTNVSTRARPRLGLAAR, 0.705 ± 0.56; as for IYRLTCETEVRCGTFNDIVD, 0.105 ± 0.21.
The same measure for FWPCFSWYC: 2.16 ± 0.15; for TWSSKIEDSSAYYDG: 1.65 ± 0.36; for NLRFRRYTLVSGMQGNKIWH: -0.234 ± 0.48.
On to LRRVRMEWSVVMHGQSENPE, for which the amyloid nucleation score was found to be 1.2 ± 0.35.
For CDRAIPLSIHTELMYRRSRG, the amyloid nucleation score amounted to 1.11 ± 0.38.
As for TSVSARFFFCRKISRMHRSS, the figure is -0.885 ± 1.1; as for EFLDELSGVVYSLLGYEVTR, 2.63 ± 0.13.
In turn, IFPCNFSGNYLRKVWFPVRY registered an amyloid nucleation score of 0.42 ± 0.91.
The substance VKKRGDQLSLCWCLPRDLLL came in with an amyloid nucleation score of 0.612 ± 0.59.
Substance VPSNLQGSPFPQLGMSALVH registered an amyloid nucleation score of 0.149 ± 0.62.
As for VNSFCR, the figure is 0.587 ± 1.1; as for SSPKTRMVEGVCCYFVGSIY, 0.704 ± 1.2; as for NASYVNIKYRNRGN, 4.53 ± 0.082.
As for GVTMVISPPYVMAGRSDMFL, the figure is -0.031 ± 0.65; as for KMSGTLQ, -0.115 ± 1.4.
The same measure for WRLSLYPQPLGLWAEATLDT: -0.209 ± 0.53; for QYMKLGFNPCKTMVVLFLCC: 4.16 ± 0.062.
On to NLVVTTWARDIADYISAS, for which the amyloid nucleation score was -0.01 ± 0.4.
As for GFKPWVVCWTWQAAPKVRSP, the figure is 0.702 ± 0.73.
As for GFGQAGGPSGESY, the amyloid nucleation score worked out at 0.722 ± 0.75.
The same measure for ARWLIEAVWSMYRFHYIGKR: -0.722 ± 0.52.
As for KMYLLRIQ, the figure is 0.661 ± 0.82; as for NGGAPSGNSGFKYSCKGWFV, -0.452 ± 0.52; as for IFNSEVVSSLIRVVSMNMEG, 0.654 ± 0.21.
As for IFCAPLTTSQIALRVYNRRL, the amyloid nucleation score came to 0.727 ± 0.88.
The substance GCLRTWQITLVEYNCMTLRI showed an amyloid nucleation score of 0.215 ± 1.2.
In the case of FNGRVDSARCPGVARARHLL, the amyloid nucleation score is -0.846 ± 2.4.
The same measure for AYIKNQ: -0.305 ± 0.47.
SVMLLQLYMCLINFPNIPRT displayed an amyloid nucleation score of 1.6 ± 0.44.
The same measure for SNCGWRIFKEM: -1.35 ± 2.1; for GVDLVSAIYGTSGHTVWMAF: -0.054 ± 0.52; for KGTCCPPLPVILDIMEDSSR: -0.227 ± 0.38.
In turn, GVGMAPATLGPETHEKSELM returned an amyloid nucleation score of 0.282 ± 0.3.
As for WIYGWACWYCNLNDSTRVGK, the figure is 5.798 ± 0.047; as for LYLHNHGVWAYFKWCWGVRG, -0.257 ± 0.53; as for IVPAEAVLRRLQRFLRWLVV, -0.245 ± 1.1.
As for HFVGMMMKSGGFARLTYNKG, the figure is 0.443 ± 0.45; as for EGVHNSRKVEPGVKFGSGAR, 0.621 ± 1; as for RRCRVEFLYVHSDYM, 3.79 ± 0.097.
The same measure for YEFVRRDHVPFRLGMSNPED: 1.76 ± 0.53; for SLPLTVVLYCHRYG: 5.05 ± 0.064.
SNCRDKRFMY registered an amyloid nucleation score of 0.637 ± 0.79.
For the substance YGGIVNDVFAGLQNIMGVAL, the amyloid nucleation score was found to be 0.334 ± 0.54.
Take YNSETSPVCYELTCESFCIV: the amyloid nucleation score is -1.23 ± 2.4.
As for EIRQVECLTCMRQ, the figure is -0.839 ± 1.2; as for SVFYYILNPSEAVHEVSVTS, -0.564 ± 0.48; as for INAFYVVLIIRYVPSSKLLI, “inactive”.
WVILVNDGVNVCCFSVRVWA returned an amyloid nucleation score of -0.903 ± 2.4.
As to TSVNMVIYILLVNFMKFLVG, the amyloid nucleation score amounted to 1.37 ± 0.45.
As for VYCCTYVQINVGVERSTEIR, the figure is 7.044 ± 0.05.
Take FLLGRNFNLANSNFHSVICL: the amyloid nucleation score is 0.24 ± 0.88.
The same measure for SGCSRRCWLGSRPGSWGACC: 0.698 ± 0.45.
The same measure for IYFFIPFSPVGDTDRSFWGY: -0.059 ± 0.98.
Consider DGTSPRQLKCMLKFLFDVWD, for which the amyloid nucleation score was found to be 2.94 ± 0.2.
The same measure for YRAKSSEGL: -0.631 ± 0.71; for LFLNMNPVLDTIIPFGWSSV: -0.128 ± 0.56.
In turn, PYLGHR returned an amyloid nucleation score of -1.55 ± 1.4.
Substance MNGSNRSCLFFCIGCVMPAW displayed an amyloid nucleation score of 7.5 ± 0.081.
The same measure for GISFP: -0.737 ± 0.31; for VECAYSVTFSKMNRNTDFRV: 0.265 ± 0.35; for HLVGWESR: 0.476 ± 0.79.
As for HCSSFNILRMNDNE, the figure is 0.398 ± 0.23.
For the substance NSYQSSFSEFAASICFDTAE, the amyloid nucleation score is -2.5 ± 2.4.
As for NMDSNAIGGGGNGGVRLQSR, the figure is -0.76 ± 0.55.
TMCEYSHFLLRAMNNLMENV gave an amyloid nucleation score of -1.57 ± 2.7.
The same measure for RSNFELSLSALKVMLFVGHK: “inactive”; for IYLMIGHWESNNKLNICVLP: 3.7 ± 0.11.
The same measure for VLTVRLTMLDCHLAAFSSNA: 1.66 ± 0.16; for ATGINTGMTSNYSVMEMWGF: 0.937 ± 0.48; for IYTVVRAVCMGPGSGWLFRK: -1.05 ± 1.2.
The same measure for CLSGGFMPTYKVIWRQGCYG: “inactive”.
LFNSYIAVGVKKTSSEVMQR: the amyloid nucleation score was 0.385 ± 0.55.
As for MHTEFFGGMAHTTLWDVMSP, the figure is -0.977 ± 0.77; as for DTLVDVVFDADVV, 0.26 ± 0.28; as for LMWVNLTSVFVRMD, 0.14 ± 0.31.
The substance NFRGFLVTDPLSSS displayed an amyloid nucleation score of -0.842 ± 0.42.
The same measure for MYRQTEGLVRFKGRGPFKVE: 0.355 ± 0.4; for QAVSRHNGSSVVTVRFKLSP: 1.49 ± 0.52; for FSHKRW: -0.479 ± 0.48.
TSYIQW had an amyloid nucleation score of -0.359 ± 0.29.
As for NNLRLKGKKRSYRCSVIDLT, the figure is -0.256 ± 0.39; as for TGKSRDNRNVDGNL, 0.063 ± 0.38; as for WMEVHWGGNVSLDSSYMELF, -0.044 ± 1.1.
With YTSSFVKDGKHWSRSKTGVY, the amyloid nucleation score is -0.569 ± 0.73.
Consider SYSSVVSVYFLQIYFF, for which the amyloid nucleation score is 4.05 ± 0.054.
As for AIGSCWTGLRNGT, the figure is 0.734 ± 1.1; as for GVWVGIICKINLKYAFR, 1.23 ± 0.34; as for NVYLMKLDWTIKMWWA, 0.638 ± 0.69.
Regarding YPYNWSPYEAASIVAVQNYQ, the amyloid nucleation score was -1.44 ± 1.5.
As for NMTAYSRCSSRTWYTVVFSG, the figure is 1.71 ± 0.15; as for RRLQSNLSSCEASNPDTLRC, 0.774 ± 0.36; as for RYARWYTQCWTKQRVWRPLD, 0.984 ± 0.3.
As for LLLLCMDARRKRYSSMSACS, the figure is 1.02 ± 0.53.
As for GKSKAAQFN, the figure is -0.318 ± 0.31; as for FMSAV, 0.374 ± 1.2.
